Experiment: label from the status in PepcDB records

Row | Sequence | protein production
1 | MQRCLRIQVARRHKLRNGKILDLGQQPTAPLLSLYLSTAQSRVISNEEPASISWSCAEAGSALGLSSASGSAEEAEPWPGVRRGTEAGQYEFARAGEAAAAVRAAAAVAVARAGMRRYLRVVGLCLACGFCSLLYAFSQLAVSLEEGAAVGRRPQAAVASWLADGGRGTGRGAGSAGPGRTGRCKEVSLSYWNPYWMLPSDVCGVNCFWEAAFRYGLKTRPTEKMHLAVVACGDRLEETVTMLKSALIFSIKPLHVHIFAEDQLHDSFKDRLDSWSFLQRFNYSLYPITFPSDSAMEWKKLFKPCASQRLFLPLILKGVDSLLYVDTDVLFLRPVDDIWSLLERFNSTQIAAMAPEHEEPRVGWYNRFARHPYYGRTGVNSGVMLMNMTRMRRKYFKNDMTTARLQWGDILMPLLKKYKLNITWGDQDLLNIMFYHNPESLFVFPCQWNYRPDHCIYGSNCREAEEEGVFILHGNRGVYHDDKQPAFRAMYEALRNCSLEDDSVRSLLKPLELELQKTVHTYCGKTYKIFIKQLAKSIRNRYDTPPKER | failed
2 | MQRFALIGAGFIGGVHGDNLAAHPDVDLALVFDIDLARATDLAKRHGSRATTDLAEVFDPTAIDAVFIASSSNTHAEHLRAAATAGIPALCEKPIDLDLAHAVDIVRFAETRSLRAMVDFNRRFDRDYAELQRVVASGEIGSVELIQMTSRGPAMPPLEYIAVSGGQMRDQTVHFFDLARWISGLDPESVFATGSTLAEPRLAEYGDVDTSAVTLRLPGGALVQIDCTRRIGYGYDERIEVLGSTGMVEARRQRAGSVSRYSAGRVVDDGLHAGWFERIRGSYRTALDHFVDALENGAAIGPTLAEGLKAQAIAEAATRSLTSGRMEPIEYPA | failed
3 | MQRTLDITQAMIDGYGRINGDNDIIHYDHDYAVQRGFRGTLLHGPHMTALAADLGARRYASDWLYRGKLHTKWIGPVCPGDTFVAALNEQGEIEAVSGGKTVMVGSASLAD | failed
4 | MQRVAQWAADVPEETLNLLELSQVAGVSLRQLQSAFKAFTGMAPSQWLRLRRLNSAHRELLSRGPTETTVAEVAMHWSFWHLGRFSSSYRALFKELPSQTLKRSAVARR | failed
5 | MQSAYSFLPQVIAHRGSSGQAPENTLASLHLAGQQGIKWVEIDVMLSGDGIPVIFHDDYLSRTTDGDGLIYKTPLAELKQLDAGSWKGQEYQQETIPTLLEAIEVISQYGMGLNLELKPCEGLEEETIAASVEVLKQHWPQDLPLLFSSFNYFALVSAKALWPEIARGYNVSAIPSAWQERLEHLDCAGLHIHQSFFDVQQVSDIKAAGYKVLAFTINDESLALKLYNQGLDAVFSDYPQKIQSAIDSHIN | not failed
6 | MQSLGSLAKNIKPNQNIVEEEHNLKCERCGNTYDYYKFSNGKEFRHGCDCSMIAAGKEAEQQRKQKYLNRIFNQSNVNASLRDATVNSYQPQNDHQVHAKSTAIEYVKGFSVDKPKSLILQGSYGTGKSHLAYAVAKAIKQQGYSVAFMHIPMLMERIKATYNRNATETTDELVQLLSSIDLLVLDDVGVENTEHTLNKLFSIVDNRVGKNNIFTTNFSDKELNQNMNWQRINSRMKQNARTVRVLGDDFRGRDAW | failed
7 | MQSSAVFPLSPLIPLLQQRRLSLRHHPITAASSSDLNMSPNKPTPYVLSAIVPIVGGVALASISEVSFNWAGFSSAMASNLTNQSPNNYIFEF | failed
8 | MQSSNDPPRGAGGGPECAADHRAVPGRTYVETGQGAGYDGPRYDDPWYDALASGWGESAGPAAPGPTVPPMRRSAPAEPPRAAADVYLEVQRSAAFQEVRSRYRRFVVPAVAGFFLWYVAYVVAATSAPALMARPVAGAVNVAMVAGLGQFLTTFLLTWAYARHARLRRDRAALELRWDTQELTRGVRGDAS | failed
9 | MQTNEHEHVIEVTDLRRVYGGGFEAVRGIDFSVRRGEVFALLGTNGAGKTSTVELLEGLAAPAGGRVRVLGHDPYTERAAVRPRTGVMLQEGGFPSELTVAETARMWAGCVSGARPPAEVLALVGLEAKSGTRVKQLSGGQRRRLDLALALLGDPEVLFLDEPSTGLDAEGRRDTWELVGALRDQGTTVLLTTHYLEEAEHLADRLAIMHDGRIAATGTPAEVTAAQPSHISFELPDGYFVGDLPPLAELGVSDHETDGRTVKLRTRELQRAATGLLVWAAQAAVELRRLDVRSASLEEAFLSIAKQVSARSDGTATDTTEKEYAA | failed
10 | MQTRLATKQDIDTLATLERQHLNDELISGGFHLEGQAFTRTELTQLVEKHWIVVAEVNGRIIGYVIAGRWSFFETWPIYRNMLQRLNRMNGDGPQLTTQNSCQYGPIWIDNAHRGQGVFEALIAGIYREVAPSFDYMVTFIADENERSLAAHTRKANM | failed
11 | MQTVKYLARNSGFLFLNGIATNILSFFAMLYIARHLGPEDYGIFSFAFAFIYFFSFIPDMGVHQILVREAAKEPGKAGKLIGNGTIIKFFLSFVAIILAFILINLIGFPSSTKNALYIASLGLLISGTGAYGIIYEAKLRMEYSLLFNLVSRVCLLLFVFLAVAINSTLNTFIFASVSATFVHNLLMVLFSKKLVKVSFNPDITLIKQLLREAIPIAIASVFTVVYFKIDVLMLSFLRGDAEVGFYSAAYRLTDALVFLPSAFTTSTFPLMSRYFKESFNSFSFAYARTFKYLFASGLLIAVLVTFASEKIILIFYGPEYQNSVIALQILIWATAITFISVLISSTCVSSGNQQIISKTAILAALLNVSLNLILIPSTGYIGAAVATVLSVLGSMVFGLIWVHKNLLHENPLKGTISPIIGAGVVSLFIILLEPYADIMFLSAVSVPLFAAVLYTTGWIDSDDKTIFLKLFPASRLNSKKF | failed
12 | MQVSREFKGIFLASISATFWGISGAVAQTLFDTTDINSIWLTGIRMLGAGIALLLVSLLTHVDLWSIWRQPRDLLQIVAYTLLGLMPVQFTYFLAVEASNAATGTILQFMGPVFIALWMLVAHRQLPTRAEGLAIICALLGSFLLVTHGNPQTLVISVWALIWGLLSGVSSATNTLLPTKLLTKYDPMTVNTWSMLLGGILFNIVQPVWSIHIPLTMLNISKLTFVVLFGTLLAFLFFLQSLQYIRPTVVSLLDAFEPLSATIIAVVLLGVSFGWLDILGSVLIISTVFILAIGQGPNDRTAENFKQP | failed
13 | MQYINIANRGVKSLSPYQAGKPIEELERELGISNIVKLASNENPFGFPESAKKAIFEQLDKLTRYPDANGFELKQTIAKKFGVQPNQITLGNGSNDLLELFAHTFATEGDEIMYSQYAFIVYPLVTKAINAIVKEIPAKNWGHDLQGFLTALSDKTKLIYIANPNNPTGNFLTSQEIEDFLAEVPENVIVVLDEAYTEFTRSEERVDSFSLLKKYSNLIISRSLSKAYGLAGLRIGYAVSNPEIADLLNRVRQPFNCNSLALTAAVAVMNDDKFVEKVAENNRIEMRRYEDFCQKNQLDYIPSKGNFITIDFKQPAAPIYDALLREGVIVRPIAGYGMPNHLRISIGLPEENDKFFTALSKVLKFA | not failed
14 | MQYRIRRENEAPEAKNAGETLWERDIMREVLLSAYRDRRRERMWKNIWRAVSTLILVALIAGIFRKDEAALQLAGNTPHTAVVNLYGKIGNGVEDQVKKLKDGMEAAYKNPQAKAIVIRANSPGGSPVVSNTAFEEIRRLKAQHPGIPVYLVAEDMCASGCYYIAAAADKIYADPSSIVGSIGVIGSSFDATGLMEKIGVKRRVKIAGSNKGMGDPFSPETPEQSKIWEEMLTGIHGEFIKAVKTGRGGRLKFRQYPDVFSGRVYTGADALKVGLVDGLGNIYSVARDVVKAPDVVDYTPKDDFGRILGRRFGAELKASVSEALQAVRLEHHHHHH | not failed
15 | MRAAFLIGILAAMGALTQGGSISETVGAGLIDGATITSLAAVAGLLTATGFMAFGIYSGYPVPAAFATTGAMVGVGLSLGGQPVFDTYRRIATFWLLVPPVSGSLAYLTATVLRRDDIPETVGVPLLAGVVGGIVANVQLSIIPSPAGTDQGSLAGFAAMVAGTDIAAVATTLLVAAGSFYYIRRQTQASVDKGIKTFLVVLGSVVAFSSGGSQVGLATGPLENLYRAELGLPGFVLLALGAVGILGGAWMGAPRLLQATSREYAQLGVRRSIAALVPGFIIAQAAIALGIPISFNNIIISGVIGGGLAGGSAGVSRRKIGVTVGFWLITLVTSVVIGFGVYQVLEAALGSQV | failed
16 | MRAMRLVEIGKPLKLEDIPIPKPKGSQVLIKIEAAGVCHSDVHMRQGRFGNLRIVEDLGVKLPVTLGHEIAGRIEEVGDEVVGYSKGDLVAVNPWEGEGNCYYCRIGEEHLCDSPRWLGINYDGAYAEYVLVPHYKYLYKLRRLSAVEAAPLTCSGVTTYRAVRKASLDPSKTLVVIGAGGGLGTMAIQIAKAVSGATIIGVDVREEALEAAKRAGADYVINASSQDPVSEIRRITQGKGADAVIDLNNSEKTLSIYPYVLAKQGKYVMVGLFGADLKYHAPLITLNEVQFIGSLVGNQSDFLGIMSLAEAGKVKPMVTKTMKLEEANEAIDNLENFKAVGRQVLVP | not failed
17 | MRARRRVMAKREALRAGSKASRQATPNSQPELEGKLFAEQDAGERTHEKLVFVPRVDIYETETGLVVVADLPGVGPEGLEVTLEKRVLSIYGRVKEDTPEGYSQAYREYEVGDFERQFTLSGDFEINGIEANIKDGVLHLAIPRAPEAAAKRIEVRSVS | failed
18 | MRAVIQRVKKSWVEVDGKVVGSINEGLNVFLGVRKGDTEEDIEKLVNKILNLRIFEDERGKFQYSVLDIKGEILVVSQFTLYANVKKGRRPSFEEAEEPKRAKELYEKFVDKIKESGLKVETGIFGAMMDVFIENWGPVTIIIDSREI | not failed
19 | MRCCHSGKSYRLWGHRSSQRHRSGETGRGRLRIDQPGAASRRGSRALSWCGCHHVPCPDVTGAGRVRATCRRSFVHERNPHLHMLDAFHRGDVGLYTGTMTAPALLSREAELSRRDLIALESRLREAVSRFLPFKAYSLYFPREAETVEPLWLPGEGRLLLPLIHGGALLAVFVARGVPRRIVRSLMPAFPGLLALCMENLALYKAGRTDALTGLSTRQHLVERMAREADHVRTCFANPPEGEGDLGAPLHRACMGLVVVRLASLRQVARDHGYTFADRLTTELARELSALAPEQALAARTGDYEFALLVPAAASGVCRKLAEEAVQRLSAVSLRCGLTEKAVRVCVSAGYAVYPRDMEGALFERDMAEQARVLLRKARLAAAVAGEGEGSEGPGVMGFARILAEGGAVVETHPLSRVMVNLGRSMNAREGQRFSVWSVAYPVRGGTHEPRQPLYKGEVVLLEVREDRSVAEILHLGDPTWPIEPGDRLTLLPEEKGGDARRDASGVQVDPLTGLYRHGDFLARWSEAREGCDCFALALVRFSDDGRDPEGRASHPEQLMAEAAQLCRDHFGAETLGGRYGLNSIVFFHPDMTCDAARESYRQLCDLLSKRLRIDAAVGVGCHPFLAYRRADALENALKALEYALLLPEPRVGIFDSLALNISADKRFSLGDTFGAIEEYKTALLADEGNTMAWNSLGVCMAGLGRHGEARRYFEQALQRKPGDPMALYNLGTVCQSLGETAEARKQYRKCLKYAPGHVFALVRLGQLAEGEKRYAQARQYFNKAARAGDSGGLVHRNLARLSMRQGRPDEAREHLHDALLRNPQDAVALQLMARLYLDGGEDPAMAEALSRQSVALRPDLKQGWLELARALDARGHVAEAREARLRAGER | failed
20 | MRCGWLLGFLFLLSVLSYPRPAVAMTVLAEEYAPLSYSVDGQPRGFAVELFHELERRLALPPSDVTFMAWSRAYRLLLRGPRHAILFMGRTMEREDKVWFVGPIWVEDDYFYKKAGSHVAAATLDEARTVSRIGVVRDDFYQLRLQEMGFTNLDLGTSHEQGLRKLAQGRVDLVPMGELTAASQIANYPGLSMDSFERTDIHLLRSEMYIGFSRDMAWVEVERWQKALDHLRQDGTYDQILRKFVPQWRSR | failed
21 | MRCKRHTVDFSSSIGVCASCLRERLFTLAVSTAASENDDNDHRHSRISPPPLLFPRSVSPYVAPRKSDAGTGTGAGGRDSVASSNNRFFATPQVVVQSSSSEKVFESDRSFKKKKSGLSRFSSFFRTRSDDYDSRRDSCDASTVFSQPSSATTSRSWFSKVISVRSKKQSTTNTCYIEDLIASESDHHHHNQNRPRQRYCRGMSPAGDSTTNDESVEESPGRLRRTPVMGTPGRKKTATIGIGRSVSGMAFCLSPLVRAKPNCSSNWKAKFPPDFGYSGELKSPAKPHLSTAASFCGNRSKKLVDLGRVDHRR | failed

Reference: a protein production outcome set (Wang et al. 2014)
